PMC6572788 (Nature Communications, 2019)

B1: nanobody D12 (VHH)
VHH: QVQLQESGGGLVQAGSSLRLACAATGSIRSINNMGWYRQAPGKQRGMVAIITRVGNTDYADSVKGRFTISRDNAKNTVYLQMNSLKPEDTATYYCHAEITEQSRPFYLTDDYWGQGTQVTVSS
notes: pXAP100 vector, C-terminal His6-cMyc tag; source: E. coli BL21(DE3) pLysS, periplasmic extract, purified (Ni-NTA, SEC); not shown: His6, C-terminal, kept; cMyc, C-terminal, kept
B2: nanobody T2a (VHH)
VHH: QVQLQESGGGLVQAGGSLRLSCAASGSIFRIDAMGWYRQAPGKQRELVAHSTSGGSTDYADSVKGRFTISRDNAKNTVYLQMNSLKPEDTAVYYCNADVRTRWYASNNYWGQGTQVTVSS
notes: as for B1
B3: nanobody T27 (VHH)
VHH: QVQLQESGGGLEQPGGSLRLSCATSGVIFGINAMGWYRQAPGKQRELVATFTSGGSTNYADFVEGRFTISRDNAKNTVYLQMNGLRPEDTAVYYCHATVVVSRYGLTYDYWGQGTQVTVSS
notes: as for B1
B4: nanobody T4 (VHH)
VHH: QVQLQESGGGLVQAGGSLRLSCAASGSTFAIIAMGWYRQAPGKQRELVAVISTGDTRYADSVKGRFTISRDNAKNTVYLQMDSLRPEDTAVYYCNAAVQVRDYRNYWGQGTQVTVSS
notes: as for B1
B5: nanobody T8 (VHH)
VHH: QVQLQESGGGLVQPGGSLRLSCAASGSTSSINAMGWYRQAPGKQREPVAISSSGGDTRYAEPVKGRFTISRDNAQNKVYLQMNSLKPEDTAVYYCWLNWGRTSVNSWGQGTQVTVSS
notes: as for B1
B6: nanobody G3a (VHH)
VHH: QVQLQESGGGLVQAGGSLRLSCTASGRAFSWYVMGWFRQAPGKEREFVATVSGNGSRRDYADSVKGRFTISRDNAKNTVYLQMNSLKPEDTAVYYCAASSTYYYTDPEKYDYWGQGTQVTVSS
notes: as for B1

How the values were obtained:
[1] = target: T1, 2PT-NBD1 (human CFTR NBD1, residues 387–646, S492P/A534P/I539T) (Homo sapiens (human), CFTR M470 allele …, S492P | A534P | I539T, biotin (in the ELISA; site not stated)); experiment: cell-based or functional assay
T1 sequence (P13569 387-646 V470M/S492P/A534P/I539T): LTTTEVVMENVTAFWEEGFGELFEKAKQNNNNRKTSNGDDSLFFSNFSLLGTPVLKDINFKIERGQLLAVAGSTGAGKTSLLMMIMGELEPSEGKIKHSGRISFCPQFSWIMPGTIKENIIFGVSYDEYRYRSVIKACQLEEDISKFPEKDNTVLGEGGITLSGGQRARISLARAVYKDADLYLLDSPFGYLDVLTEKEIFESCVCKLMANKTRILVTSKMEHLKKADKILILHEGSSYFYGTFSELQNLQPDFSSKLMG

[2] = target: T2, human wt-CFTR stably overexpressed in BHK-21 cells (human, UniProt P13569); experiment: flow cytometry on cells; BHK-21 cells stably overexpressing human wt-CFTR or 2PT-F508del-CFTR, permeabilised with 0.01% β-DDM on ice; 50 µg ml^−1 nanobody; detection by anti-His6 or anti-cMyc antibody and anti-mouse-Alexa Fluor 488; settings: one partner purified
T2 construct: human CFTR, wild type, full length, in BHK-21 cells; also called cellular CFTR; FL-CFTR; source: BHK-21 cells, stably overexpressing; in permeabilised cells (flow cytometry) and solubilised with 1% DMNG (pull-down)
T2 sequence (P13569 whole entry): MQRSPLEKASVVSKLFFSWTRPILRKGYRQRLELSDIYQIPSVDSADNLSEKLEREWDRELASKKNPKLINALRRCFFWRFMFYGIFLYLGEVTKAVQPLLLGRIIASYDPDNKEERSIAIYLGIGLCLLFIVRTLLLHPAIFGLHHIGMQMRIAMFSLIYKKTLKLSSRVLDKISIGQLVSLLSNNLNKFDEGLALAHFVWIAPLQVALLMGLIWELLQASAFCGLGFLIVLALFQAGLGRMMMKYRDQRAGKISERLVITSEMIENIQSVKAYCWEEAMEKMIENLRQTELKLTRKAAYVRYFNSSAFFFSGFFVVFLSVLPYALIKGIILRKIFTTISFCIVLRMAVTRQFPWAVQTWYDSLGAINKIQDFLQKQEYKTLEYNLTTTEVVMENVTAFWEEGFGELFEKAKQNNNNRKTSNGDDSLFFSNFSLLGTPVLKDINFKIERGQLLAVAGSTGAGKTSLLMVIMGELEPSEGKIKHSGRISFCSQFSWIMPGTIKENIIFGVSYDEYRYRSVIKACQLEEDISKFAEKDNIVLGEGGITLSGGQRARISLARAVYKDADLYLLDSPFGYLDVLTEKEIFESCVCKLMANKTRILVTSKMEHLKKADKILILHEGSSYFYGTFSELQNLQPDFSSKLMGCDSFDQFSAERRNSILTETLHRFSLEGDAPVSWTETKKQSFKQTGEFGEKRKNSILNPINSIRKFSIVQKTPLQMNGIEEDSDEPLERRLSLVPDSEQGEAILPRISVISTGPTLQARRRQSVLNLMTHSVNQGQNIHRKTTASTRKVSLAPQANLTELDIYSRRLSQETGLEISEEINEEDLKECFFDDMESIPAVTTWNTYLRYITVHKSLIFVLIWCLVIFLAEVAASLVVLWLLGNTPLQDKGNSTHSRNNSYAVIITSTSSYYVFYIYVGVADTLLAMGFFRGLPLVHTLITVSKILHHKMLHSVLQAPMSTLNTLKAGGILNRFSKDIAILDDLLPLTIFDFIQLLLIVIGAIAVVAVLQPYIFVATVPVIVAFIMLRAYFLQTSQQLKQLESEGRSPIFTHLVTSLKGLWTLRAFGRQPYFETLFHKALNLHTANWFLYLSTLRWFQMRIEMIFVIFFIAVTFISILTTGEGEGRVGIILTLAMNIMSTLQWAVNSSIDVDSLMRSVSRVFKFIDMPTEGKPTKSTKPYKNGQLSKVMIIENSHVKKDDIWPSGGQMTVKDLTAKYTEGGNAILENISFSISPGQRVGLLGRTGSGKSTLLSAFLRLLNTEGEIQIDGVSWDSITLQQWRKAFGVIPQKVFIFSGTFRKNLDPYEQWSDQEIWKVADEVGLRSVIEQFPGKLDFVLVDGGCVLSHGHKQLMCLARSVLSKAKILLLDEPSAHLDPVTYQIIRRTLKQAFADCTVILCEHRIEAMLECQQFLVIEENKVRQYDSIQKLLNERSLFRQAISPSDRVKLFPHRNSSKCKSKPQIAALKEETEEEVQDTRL

[3] = target: T1, 2PT-NBD1 (human CFTR NBD1, residues …); experiment: ITC; nanobody titrated into 2PT-NBD1; NanoITC, 20 °C; 20 mM Hepes pH 7.5, 150 mM NaCl, 10% glycerol, 10% ethylene glycol, 2 mM ATP, 3 mM MgCl2; one-site binding model; settings: both partners purified

Binder | increase of the apparent Tm of 2PT-NBD1 by thermal shift assay (DSF; 10 µM NBD1, 30 µM nanobody) [1] [°C] | binding result [2] | Kd [3] [nM] | stoichiometry N [3]
B1 | 13.8 | binds | – | –
B2 | 11.2 | binds | 54 | 1
B3 | 11.9 | binds | 25 | 1
B4 | 12.5 | binds | 37.9 | 1
B5 | 9.1 | binds | 39 | 1
B6 | – | binds | 1100 | 1
